Assay: soluble fraction after stress (log2 fold change); higher = more stays soluble; pooled small domains, quantitative proteomics
Conditions: stress: 50 degC
How it was run: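 Each library was heated to 50°C as a stress step. The libraries, made up of small protein domains, were pooled and analysed at high throughput by quantitative proteomics. The reported value is the base-two logarithm of the fold change in each protein's soluble amount after stress, taken as a measure of aggregation propensity. The higher the value, the more protein stays in solution.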

Sequence	soluble fraction (log2)
HMEYEETMSQIKHNLNLLPRQQRVIIEMAKFDELTPAEIAKQLGISVQTVRNQLSTGLKKLRQLL	-0.0252
HMEYKKKIGELLIDGNKKLKAANIDTYILDTQLLLGKVLGKDKLYLITNKDEEVSNFKEREFYSLIEKRI	0.00227
HMEYMKQRLYDIIELFKRSFSPSFSEEEKKKLENVLQDDFLRKAYEQLSDEVFIEEKFREFDGY	-1.73
HMEYPNEIARIFNQIPELNVSAVARTLGINKSLLSSYIYGMKKPSPERTEEIKSAIRKIGQNMLAV	-0.421
HMEYQSLVLDFLEQGDFNAEKLKDYQRAFAKQNGMQTLPSKSQILQAYFQLVEEKKINKNSDFELLLRKR	0.0447
HMEYSNLGEALRRLSEIDLQIILLKYSHGFSIKEISKILDIKEVNLYKRNKRALNKLKKILAEMEVLSN	-0.397
HMEYYDDEELDRFRGVEADAYDEDAVNEFRDVLYTLQEIEVAGWLRSLQLRAINLPDELKDEAFLI	-1.64
HMEYYEDEELDRFRGRNSDQYSDAEIEEFNEILTTLRSEEVAGWIRSLQLREIALPDELKDDVILLVG	-0.804
HMEYYIMPVANLHKVVVDGKDMSNLISNNAIAVKANVIDEGQIQIKPGEIIITTPAGVSPEEAVRSP	0.441
HMFANQLLLTRFDLNYIKSDVLSRQIDVLGIPIKKLTIEANNKSIWLQGTSQSLSKVRELIGIIDIRENA	-3.1
HMFAQDKKFITYKVKEGETVQSISKALSITPYDLLKLNPDIKDNVSQDDLLIIPNKQYDPLGDI	0.144
HMFDENVKLIENEYDVSIISRGSELKVMGDVENVDKAARALRSMLAMINKGESLTEQNVRYVLTLVNEGNE	-0.527
HMFDFLELGQAIQDAREKQRITREELAEELGISARHLQSVEKEGQYPSFRLFIQLVTMFHISVDQYI	-0.0829
HMFDLATVKRVAEEAGMKFTIHPVELRAAHPNTAVLTLKSKAGRILVLKAASVGGGRIRVTEIDGVPAD	-0.423
HMFDLDIEQIANDLKHGVMPNLYGLSLQDALYLLEAKGIRVKVAGSGSVVNQSIKTGAYVGSGSVLKLEL	-1.26
HMFDLSQRQEQIIEIVRKHGPITGEKIADLLYVTRAALRPDLAILTMSGYLEAKPRVGYTYK	-1.2
HMFDMLGDQIKKYRKEKKMSQEELAIPLNVVRQTVSKWENNLSVPDAELLIRLAEVLEISVAELLGT	-0.108
HMFDTVFIVRKTSDKPLDGLRTYLNSIGDSLVIGEDDEAFKVHVHTNHPGKVLEEAITYGALQTVKIENMR	-0.966
HMFDTVTIGRKIAELRKAHNMTQFELADALGISFQAVSNWERGASMPDISKLPELAEIFGVTIDEVLGK	-0.839
HMFEATGKITGTEVSFRRKPTTDSERILFFDINTEFRVIGINNGWYKGVYQGKTGYVRSDFVEIVGG	-0.162
HMFEEPYLATYPVLIDPKLAFNVLDTMLEGLEVKMDQDEETGAISVLAPASIHTKITEYLDALSKQ	-0.159
HMFEERKKDWNLTGLLDDVIRRYIHQLTNDELNEINLEKSSGMPDEEIKNGIKLPLAVMQQRRETWGS	-0.16
HMFEQRLRQAMKELRLKQVQVAGLTGKSRGAISQYLSGDRVPPDGVQREMAIALGLEADYFSR	-0.408
HMFERFIFTDEVYIRLKKSGLPQTTLRPLLEIHGKSFDHNEINIILSGLIPNQDFERYAQIIKSHSRF	-3.82
HMFEYDEIMEQSVPKIAWGSLLTIMKKASSHKEMLWYINETYKNGWSRSMVLNQIAMASYERSLIE	-0.851

Sequence	soluble fraction (log2)
HMFFDKIIVDFLADGSRIDKYISTLYPDISRTHIQRLIAEQFILVNDSVVKSNYKLSTNDVVLIHIPEA	-3.33
HMFFMTMGEKIQLLRKKQNWSQETLAEKLSVSRQAVSLWERDESQPELDKLLKLAKIFSVTTDYLIDDSVT	-0.386
HMFGGIEFGWSQLPDGRVEYIIQLDDQAIAALKNGRSLTSSLPPEVQNADRIRIQYGAGPVEKGLLLQ	0.0674
HMFIEMDEPEKILHRILNEANGKLELDKIGYRAEWPIGKVLTVLMSLELKGVVQSHPGKVYSL	-0.154
HMFIGFLHQLKEAGVPVSIREYLDFLSGLDKGITNLNTNSFYHFARASLVKDERHYDRFDRTFSEFFEGAL	-3
HMFIQLSQEEKKVVEGLQQRSKTHLDALALEVGQNISKTAAMLMELEMKGVVRALPGKYYEL	-0.888
HMFKEVPVPDVKGMTLEEAKLALEKEGFILGKTEEAESTEVAAGKIISQNLEAGKIAKQGTSVNLVVSKGK	0.24
HMFKLPRTIGTFEDSDVVIGAGKFGPYIMHNKKFVSLPKSEDPLTIGLERAIELISAKREQEKQRH	0.284
HMFLPFFDNLRKAGVPVSLREFLGFLEGMKAGLATYDIDAFYFLARTTMVKDERNLDKFDRAFSATFKG	-0.563
HMFNDGEIAIYTDPRGDAGETQIWKRGKGYYGQNDSFDFEAKDKKELEMKLKRWGYVLIAGSIDE	-0.291
HMFNGDPTTRESILASARAEIDQYGIIGLRLSAVAEKAQVSVPLIYKYFEDRDGLLAVVLGDW	-1.27
HMFNTWLGEIRSNTGANVRSGPDASAAIVDARPNETVVRVIGQSGNWLQIGDKQFVAQSLVAP	-0.0505
HMFPDLTGDELRIVDLLNTANDLQVNIITAKTNLPISRVTSLLFQLEMKGVVKPLAGGMYHLLG	-1.31
HMFPELDEEEQKITKLLQAQNDLPANIIAVKTALNIGTTQAKLFSLEMKGVVKPYAGGFYHLL	-0.25
HMFPNLTNEEQQVMKVLAKTNDLQINMLSVQSNLPIARLTALLFSMEMKGVVKTLAGGVYHLL	-3.23
HMFPNSFSEREKEVVDLLLQAKSNKQIAFSLGITNRTVEYHLGNIFAKLGVSSRSEAILTITNYKNQ	-2.01
HMFPQVEVQLIYSYKSDRILNKMLKEFNVVILNQVFKDDILTSFHMNYSLVNQLITKIKSYPDISYKIIN	-1.5
HMFPTLNEDEQTIVSALQKINDQPINTLSIHTALPIPRLTSLLFQLEIKGVIKQLAGGTYHVL	-0.427
HMFQLSNEAKQQVLGELKRYESKQSAVLPALYIGQKDNKGHITPEVIRELSKVMDIPESQINEVFTFYTM	-0.119
HMFQRLPFSFANRYKMVLEYQHPERPPVLYYVEPLKAAAILEVSRVIKSGFTPQAIVSDEFEKKLTEAYQR	-1.1
HMFRMTPQRMAILAEVQNAERHLTAAEIYERVRRKYPTIAYGTVYRTLHLLAKHGLIQEFPFGDNASLFDR	0.0678
HMFRPRIEPGAKGSYVLEVQKRLAKLGYEHAGFDGVYGPGTERAIMQLQRDKGLPVTGIVDMRTYEALGLF	-0.46
HMFRSTLEELKHQISGFLKANQSQEFTAQNLADGLRMTSIAEYKRVVNAMDALVRDGELTFDAGKYQYNPN	-0.279
HMFSMKDFGQRLRQLRKERGLTQGDLARLAKIDIMQVSRYERGLGLPSLETAIALARVLETSTDLLFLG	-1.46
HMFSPSDEDLELAHRQIRAFEEVEANGKSIAVVDGRIVESLHIVTARDTLEKAKAITALAEEM	0.115

Sequence	soluble fraction (log2)
HMFSVVDKITLQEELKKLSKKEQLLIQLRYYDELNQEEIAKIFHVSQVQISRMEKKIIEKLKKQF	-3.58
HMFTDEELEHIRSALIQAGIRLSKELGLQKMSVEKLTAAVGIAKGSFYMFFGSKEDFILEVAEYTGAQ	-0.582
HMFTEEEMTKLRHELILAGIRLSRELGLQRMSVEKITSAVGIAKGSFYIFFDSKEDFILEIADHANRE	-1.06
HMFTEEQMDWLRLIKDHIVASLSILPEDLELTPFDRKGGLLGFYDAFGDEYEKILQEMNEELVA	-0.588
HMFTEIMAERNALIQAIQQNLPPQHIQSILSKKNKFRLEDLTNEELRDVWQWILNQRQAQQHQQQ	-0.171
HMFTGELESRVFELNYVDGLVASAALAGVLTDKGSATPIASRAGGENDMLLVVDRIASYSQIEKIITQLD	-0.0977
HMFTKSNLEKLSNSELILKAIDSGNYSKIEFGGSEALNPDVPSYKKDLKNREELIEILSEMGM	-0.0323
HMFVNADEIAKGLSPFNPSSVAIEAGRLMLKRIGELLSAGVSFSVETTLSTRSYINLIQQAQNQGYSVSL	≥ 0.62
HMFVVVPDLIGKTINQFEEDLSELNLKYVVSDSGNFNPEFKINAVLDQSPKANSKVKDGRKIYLTLNAS	-0.432
HMFWRKIDFYGLNLSTYRNIINIGSDYNYIYLDLGNIYKILNPITGKIIEEQDLVMNIDNINWSS	-0.0971
HMFYNDLINFDVFRDSRKIGKIENINSRLPQPVFEIMYDSRIVLIPIHEDFIRKIDKVNNIIYLDIPDGLL	-1.72
HMGAAFITSSKDNAINIRQSANTDSKVIETVTNGQILESNEKSGEWHKVTYYDNDIKKSFTGYVHEGQLK	0.125
HMGAAIEYGDRGNTVLQAQRLLIARGYMAGSADGIYGRQMEQAVKRFQKEQGLPESGVVDRRTLQVLIRSR	-0.626
HMGAARRFEMSEGGSQKFWEVAVEGPALTVRFGKLGTAGTTQTKTLASAEAAAKEADKLVREKTKKGYAP	0.222
HMGAATQADIARVQELLNRLGYDAGSPDGLMGPRTRDAILEYQLTEGLETTGTVTRETLASLEARL	0.0823
HMGAGFREAIPPALDGERIDRVVSLLAYVSRNRAAGALAAGSVSVDGEVVFQRSRRVREGEELVVTGFERE	-0.97
HMGAITGLQSRVAFLKGQGTITDAEAKTAMAFLPDPTDSKEVKIAKIGQAREYIMSLIENRA	-0.106
HMGAIVTGTVVEIRSDVVIVNAGLKSEGVVPIEQFRNEAGELEVSVGDEVKVALDALEDGFGETRLS	-0.329
HMGAIVTVPDLAGRPQPGAEAELRRSGLVPKVRTSYSLTGTRGTVISQTPPAGSRVREGAEVEVVVSRGLN	0.0922
HMGAKLTTAQGGTLKVLVKGKKTHTPTIELRDKDPDFPNAKVVQPDINKGNKQIAHGINGVL	0.514
HMGALAITPDFVGQTREEAERFLRDLDLSFDIGGKGDRILRQEPVAGQRMNLDQPMKLWVGSMNA	0.0609
HMGANAVAAFTARVRTGPSTGYPVRISVPQGRQVRVISGPYGGWYRVSYQGLTGYTYGGLLRQG	-0.408
HMGAPAISYSKFLEQVDRKNVASVTIYKDGRIDGVMTSGSRFATESPSDPGLVGDLLKAGVEIRAKPP	0.126
HMGAPVIYELTAESAAGQRIDKYLSGQLADLSRSYLQKLLKDGGVEVNKKPVKSNYKLSEGDQIRLEVPEA	0.207
HMGAQINSPISGTILKYLVKNGDKITKDQPLVNIESMKMENTIKSDKEGIVNNINFKIGDSVNTADTLLTL	0.0243

From the domain aggregation screens of Martell et al. (2025)
